Where a SMILES comes first, the peptide text is derived from it. Bridges are numbered along the chain shown (N, C = ends). The star is where a group is joined. DOTA = O=C(O)CN1CCN(CC(=O)O)CCN(CC(=O)*)CCN(CC(=O)O)CC1
Legend:
[1] = Small-animal PET imaging, HNO223 xenografts; parameters: species or system mice; settings: Balb/c nude, mouse, in vivo, iv, total radioactivity
in vivo = settings: Balb/c nude, mouse, iv, total radioactivity
Method: (§1) All experiments were conducted in compliance with the German animal protection laws. Eight week old Balb c/c nude mice (Charles River Laboratories) were inoculated subcutaneously at the right shoulder with 5×10^6 HNO97 cells in BD MatriGel™ (BD Bioscience). Xenografts were grown to a tumor diameter of 10-15 mm. For small animal-PET imaging mice were anesthetized using isoflurane inhalation and injected via tail-vein with 50 MBq (2 nmol) of the ^68Ga-labeled DOTA-SFITGv6 peptide (see above) solution in 100 μL PBS. Images were recorded on an Inveon small-animal PET scanner (Siemens) using a 60 min emission scan in list mode and a 10 min transmission scan. Images were taken in 3-dimensional (3D) mode and reconstructed iteratively with a fully 3D algorithm from a 256×256 matrix for viewing transaxial, coronal, and sagittal slices of 0.9 mm thickness. Pixel size was 0.38×0.38×0.79 mm3 and transaxial resolution obtained was 0.9 mm. For blocking experiments 100 μL of a 1 mM aqueous solution of SFITGv6 was pre-administered intraperitoneally 30 min before injection of the radiolabeled peptide. Biodistribution studies were performed after administration of 100 μL of a 20 nM ^177Lu-DOTA-SFITGv6 solution (1 MBq) as an intravenous bolus injection into the tail vein of the mice. After different time points (30 min to 6 hours) three animals, respectively, were sacrificed. Peripheral blood, heart, lung, spleen, liver, kidneys, muscle, brain, intestine, and injection site (tail, after intravenous injection only) were collected and weighted. Tissue-associated radioactivity was measured in a gamma counter (Berthold LB951G) and expressed as percentage of the injected dose per gram tissue (% ID/g).
(§2) All animal experiments were conducted in compliance with the German animal protection laws. For in vivo small animal PET imaging and organ distribution studies eight-week old Balb/c nude mice (Charles River Laboratories) were inoculated subcutaneously at the right shoulder with a total of 5×10^6 tumor cells in MatriGel (BD Bioscience). Xenografts were grown until a tumor diameter of 10-15 mm was reached.
(§3) 3-dimensional (3D) PET images of whole mice were captured by the Siemens Inveon PET scanner as described in Example 1. To assess the biodistribution 100 μL of a 20 nM solution (1 MBq) of ^177Lu-DOTA-SFLAP3 and ^177Lu-DOTA-SFITGv6 were administered as an intravenous bolus injection into the tail vein of mice. For each time point (30 min to 6 hours) we sacrificed a total of three animals, and subsequently collected peripheral blood, heart, lung, spleen, liver, kidneys, muscle, brain, and intestine. Tissues were weighed and respective radioactivity was measured by a gamma counter (LB951G, Berthold Technologies). Values were expressed as percentage of the injected dose radioactivity (MBq) per gram tissue (% ID/g).

HNO97 xenografts = assay: in vivo; settings: mouse
Method: as §1, §2, §3

[2] = Small-animal PET imaging, HNO399 xenografts; parameters: species or system mice; settings: Balb/c nude, mouse, in vivo, iv, total radioactivity
NSCLC = settings: human, in vivo
Method: (§4) The PET/CT scan was performed 1 and 3 hours post tracer administration with a Biograph mCT Flow™ PET/CT-Scanner (Siemens Medical Solution) using the following parameters: slice thickness of 5 mm, increment of 3-4 mm, soft-tissue reconstruction kernel, care dose Immediately after CT scanning, a whole-body PET was acquired in 3D (matrix 200×200) in FlowMotion™ with 0.7 cm/min. The emission data were corrected for random, scatter and decay. Reconstruction was conducted with an ordered subset expectation maximisation (OSEM) algorithm with 2 iterations/21 subsets and Gauss-filtered to a transaxial resolution of 5 mm at full-width half-maximum (FWHM). Attenuation correction was performed using the low-dose non-enhanced CT data. The quantitative assessment of standardized uptake values (SUV) was done using a region of interest technique.

[3] = test system: recurrent hypopharynx carcinoma; settings: human, in vivo
Method: as §4

For `CSCC[C@@H]1NC(=O)[C@H](CC(C)C)NC(=O)[C@H](CC(=O)O)NC(=O)CNC(=O)[C@H](CCCNC(=N)N)NC(=O)[C@H](Cc2ccccc2)NC(=O)[C@H]([C@@H](C)O)NC(=O)[C@@H](NC(=O)[C@H](CCCNC(=N)N)NC(=O)CNC(=O)CN2CCN(CC(=O)O)CCN(CC(=O)O)CCN(CC(=O)O)CC2)CSSC[C@@H](C(=O)N[C@@H](Cc2ccc(O)cc2)C(=O)N2CCC[C@H]2C(=O)N[C@@H](CC(=O)O)C(=O)O)NC(=O)[C@H](CC(C)C)NC(=O)[C@H](CCC(N)=O)NC1=O` [^68Ga-DOTA-SFITGv6, metal not drawn] ({DOTA}-GRCTFRGDLMQLCYPD-OH; disulfide 3-13), the SUV at 1 h [1] was 0.23 SUV, the SUV at 1 h (in vivo) was 0.68 SUV and the “time after injection until radioactivity accumulated in the tumor” value (HNO97 xenografts) was at most 20 min. For the same molecule, the “time for which tumor accumulation was maintained” value (HNO97 xenografts) was “at least 140 min”, the “time of clearance of non-specific activity from the blood” value (HNO97 xenografts) was at most 60 min and the SUV at 1 h [2] was 0.33 SUV. For the same molecule, the “SUVmax Shoulder” value (NSCLC) was 1.50, the “SUVmax Elbow” value [3] was 1.70 and the “SUVmax Gallbladder” value [3] was 1.90. The “SUVmax Hilar” value [3] was 1.00.

From patent US20200131227A1, “POLYPEPTIDE WITH TUMOUR BINDING ACTIVITY” (RUPRECHT-KARLS-UNIVERSITÄT HEIDELBERG, priority 2017, published 2020)
